From paper PMC11297322, “MEILB2-BRME1 forms a V-shaped DNA clamp upon BRCA2-binding in meiotic recombination” (Nature Communications, 2023)
Substitutions are numbered along the chain they refer to.

How the values were obtained:
[1] = target: T1, BRCA2MBD;MEILB2 (22-338);BRME1MBD (Mus musculus;Mus musculus;Mus musculus) (UniProt P97929+Q9D4G2+Q6DIA7); assay: EMSA; settings: EMSA: 20 mM HEPES pH 7.5, 325 mM KCl, 60 min room temperature; 0.4% agarose, 0.5x TBE pH 8.0, 4 C; 50 uM DNA per bp/base (qualitative). Pulldown: 20 mM HEPES …
T1 sequence 1: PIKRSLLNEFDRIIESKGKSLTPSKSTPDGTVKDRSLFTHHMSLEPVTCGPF
T1 sequence 2: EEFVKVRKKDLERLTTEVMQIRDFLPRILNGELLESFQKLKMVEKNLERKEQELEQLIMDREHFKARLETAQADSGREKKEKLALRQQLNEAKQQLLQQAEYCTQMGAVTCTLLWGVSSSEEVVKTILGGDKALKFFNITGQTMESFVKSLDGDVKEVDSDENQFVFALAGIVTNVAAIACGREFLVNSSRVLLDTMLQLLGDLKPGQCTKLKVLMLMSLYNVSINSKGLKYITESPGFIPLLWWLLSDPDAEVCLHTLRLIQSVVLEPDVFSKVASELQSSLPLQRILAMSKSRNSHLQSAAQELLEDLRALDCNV
T1 sequence 3: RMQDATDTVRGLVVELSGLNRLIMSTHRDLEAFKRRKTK

[2] = target: T2, BRCA2MBD;MEILB2 K26E;BRME1MBD K26E (Mus musculus;Mus musculus;Mus musculus) (UniProt P97929+Q9D4G2+Q6DIA7); assay: EMSA; settings: EMSA: 20 mM HEPES pH 7.5, 325 mM KCl, 60 min room temperature; 0.4% agarose, 0.5x TBE pH 8.0, 4 C; 50 uM DNA per bp/base (qualitative). Pulldown: 20 mM HEPES …
T2 sequence 1: T1 sequence 1
T2 sequence 2: T1 sequence 2 with K5E
T2 sequence 3: T1 sequence 3

[3] = target: T3, BRCA2MBD;MEILB2 (22-338);BRME1MBD (Mus musculus;Mus musculus;Mus musculus, UniProt P97929;Q9D4G2;Q6DIA7 2232-2283;22-338;540-578, ||); assay: EMSA; apparent Kd, Hill n = 4; 2:4:4 complex; 50 nM DNA; EMSA: 20 mM HEPES pH 7.5, 325 mM KCl, 60 min room temperature; 0.4% agarose, 0.5x TBE pH 8.0, 4 C; 50 uM DNA per bp/base (qualitative). Pulldown: 20 mM HEPES pH 7.5, 150 mM KCl, 10% glycerol, room temperature; settings: protein: recombinant;recombinant;recombinant, tags: MBP tag, TEV-cleaved;His6-MBP tag, chain copies: 2;4;4, label: FAM, blunt
T3 sequence 1: T1 sequence 1
T3 sequence 2: T1 sequence 2
T3 sequence 3: T1 sequence 3

[4] = target: T4, MEILB2 (22-338);BRME1MBD (Mus musculus;Mus musculus, UniProt Q9D4G2;Q6DIA7 22-338;540-578, |); assay: EMSA; apparent Kd, Hill n = 3; 2:2 complex concentration; 50 nM DNA; EMSA: 20 mM HEPES pH 7.5, 325 mM KCl, 60 min room temperature; 0.4% agarose, 0.5x TBE pH 8.0, 4 C; 50 uM DNA per bp/base (qualitative). Pulldown: 20 mM HEPES pH 7.5, 150 mM KCl, 10% glycerol, room temperature; settings: protein: recombinant;recombinant, tags: His6-MBP tag, TEV-cleaved;His6 tag, chain copies: 2;2, label: FAM, blunt
T4 sequence 1: T1 sequence 2
T4 sequence 2: T1 sequence 3

[5] = target: T5, BRCA2MBD;MEILB2 K26E;BRME1MBD (Mus musculus;Mus musculus;Mus musculus, UniProt P97929;Q9D4G2;Q6DIA7 2232-2283;22-338;540-578, |K26E|); assay: EMSA; EMSA: 20 mM HEPES pH 7.5, 325 mM KCl, 60 min room temperature; 0.4% agarose, 0.5x TBE pH 8.0, 4 C; 50 uM DNA per bp/base (qualitative). Pulldown: 20 mM HEPES pH 7.5, 150 mM KCl, 10% glycerol, room temperature; settings: protein: recombinant;recombinant;recombinant, tags: MBP tag, TEV-cleaved;His6-MBP tag, chain copies: 2;4;4, blunt
T5 sequence 1: T1 sequence 1
T5 sequence 2: T1 sequence 2 with K5E
T5 sequence 3: T1 sequence 3

[6] = target: T6, MEILB2 (22-338);BRME1MBD R540E R549E (Mus musculus;Mus musculus, UniProt Q9D4G2;Q6DIA7 22-338;540-578, |R540E;R549E); assay: pull-down; 150 mM KCl; EMSA: 20 mM HEPES pH 7.5, 325 mM KCl, 60 min room temperature; 0.4% agarose, 0.5x TBE pH 8.0, 4 C; 50 uM DNA per bp/base (qualitative). Pulldown: 20 mM HEPES pH 7.5, 150 mM KCl, 10% glycerol, room temperature; settings: protein: recombinant;recombinant, tags: His6-MBP tag, TEV-cleaved;His6 tag, chain copies: 2;2, blunt
T6 sequence 1: T1 sequence 2
T6 sequence 2: T1 sequence 3 with R1E, R10E

[7] = target: T3, BRCA2MBD;MEILB2 (22-338);BRME1MBD; assay: EMSA; EMSA: 20 mM HEPES pH 7.5, 325 mM KCl, 60 min room temperature; 0.4% agarose, 0.5x TBE pH 8.0, 4 C; 50 uM DNA per bp/base (qualitative). Pulldown: 20 mM HEPES pH 7.5, 150 mM KCl, 10% glycerol, room temperature; settings: protein: recombinant;recombinant;recombinant, tags: MBP tag, TEV-cleaved;His6-MBP tag
[8] = target: T4, MEILB2 (22-338);BRME1MBD; assay: as above; settings: protein: recombinant;recombinant, tags: His6-MBP tag, TEV-cleaved;His6 tag, chain copies: 2;2, hairpin with 3' poly(dT) overhang
[9] = target: T4, MEILB2 (22-338);BRME1MBD; assay: EMSA; apparent Kd, Hill n = 2; 2:2 complex concentration; 100 nM DNA; EMSA: 20 mM HEPES pH 7.5, 325 mM KCl, 60 min room temperature; 0.4% agarose, 0.5x TBE pH 8.0, 4 C; 50 uM DNA per bp/base (qualitative). Pulldown: 20 mM HEPES pH 7.5, 150 mM KCl, 10% glycerol, room temperature; settings: protein: recombinant;recombinant, tags: His6-MBP tag, TEV-cleaved;His6 tag, chain copies: 2;2, label: 5'-FAM

For “ATGGAATCTAAAGAAGAATTTGTTAAAGTCAGAAAGAAGGACCTGGAACGGCTGACGACGGAAGTGATGCAAATACGGGACTTCTTACCCAGAATACTAAATGGGGAGTTACTGGAAAGTTTCCAGAAATTAAAGATGGTAGAAAAAAACCTGGAAAGAAAAGAACAAGAATTAGAGCAACTGATAATGGACCGTGAACACTTCAAAGCCCGGCTAGAAACTGCACAGGCAGACAGTGGGAGGGAGAAGAAGGAGAAGTTGGCTCTTCGACAGCAGCTGAATGAGGCAAAACAGCAGCTC (double strand) [FAM-300 bp dsDNA]”, the Kd [1] was 310 nM and the Kd [2] was 300 nM.

B1: FAM-75 bp dsDNA (dsDNA)
DNA 1: ATGGAATCTAAAGAAGAATTTGTTAAAGTCAGAAAGAAGGACCTGGAACGGCTGACGACGGAAGTGATGCAAATA
DNA 2: TATTTGCATCACTTCCGTCGTCAGCCGTTCCAGGTCCTTCTTTCTGACTTTAACAAATTCTTCTTTAGATTCCAT
B1 gave a Kd [3] of 400 ± 40 nM and a Kd [4] of 520 ± 60 nM.

B2: 75 bp dsDNA (dsDNA)
DNA 1: B1 DNA 1
DNA 2: B1 DNA 2
B2: no binding [5].

B3: biotin-75 bp dsDNA (dsDNA)
DNA 1: B1 DNA 1
DNA 2: B1 DNA 2
B3: no binding [6].

B4: ssDNA-dsDNA junction (5' hairpin-poly(dT) 3') (structured_DNA)
DNA: CCGGCCCGCGGTGTCCGCGGGCCGGTTTTTTTTTTTTTTTTTTTTTTTTTTTTTTTTTTTTTTTTTTTTTTTTTT
B4: binds ([7]; chain copies: 2;4;4, hairpin with 3' poly(dT) overhang); binds [8].

B5: 75 base FAM-poly(dT) (ssDNA)
DNA: TTTTTTTTTTTTTTTTTTTTTTTTTTTTTTTTTTTTTTTTTTTTTTTTTTTTTTTTTTTTTTTTTTTTTTTTTTT
In the case of B5, the binding result ([7]; chain copies: 2;4;4, label: 5'-FAM) is reported as “binds” and the Kd [9] is reported as 870 ± 70 nM.
